Here are results for 3 molecules from US20210253718A1 (MODMAB THERAPEUTICS, published 2021).

Residue numbers refer to the chain shown, from its start.

In assay [1] the target is T1, FZD4 cysteine-rich domain (CRD), MYC-tagged and GPI-anchored on CHO cells (human, UniProt Q9ULV1 42-167, GPI anchor).
T1 construct: also called FZD4 CRD; CHO-myc-FZDGPI; not shown: MYC tag and GPI anchor signal
T1 sequence: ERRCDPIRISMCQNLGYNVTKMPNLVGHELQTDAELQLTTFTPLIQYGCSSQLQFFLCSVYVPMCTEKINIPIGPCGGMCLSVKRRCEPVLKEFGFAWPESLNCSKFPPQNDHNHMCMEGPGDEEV
Put plainly: flow cytometry, CHO-CRD cells.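 Also: flow cytometry of Fab binding to CHO cells overexpressing a Frizzled CRD, with binding defined as median fluorescence over twice that of CHO cells lacking any Frizzled CRD.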 For orientation: Flow cytometry measures light scatter and fluorescence of single cells or particles in a stream.

The target in assay [2] is T2, FZD3 cysteine-rich domain (CRD), MYC-tagged and GPI-anchored on CHO cells (human, UniProt Q9NPG1 24-150, GPI anchor).
T2 construct: domain: cysteine-rich domain (CRD); also called FZD3 CRD; CHO-myc-FZDGPI; not shown: MYC tag and GPI anchor signal
T2 sequence (looked up): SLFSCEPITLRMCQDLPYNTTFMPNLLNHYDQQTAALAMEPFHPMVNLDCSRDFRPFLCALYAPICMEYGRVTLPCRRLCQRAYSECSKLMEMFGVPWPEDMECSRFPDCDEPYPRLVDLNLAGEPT
Put plainly: flow cytometry, CHO-CRD cells.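 Also: flow cytometry of Fab binding to CHO cells overexpressing a Frizzled CRD, with binding defined as median fluorescence over twice that of CHO cells lacking any Frizzled CRD.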

The target in assay [3] is T3, FZD8 cysteine-rich domain (CRD), MYC-tagged and GPI-anchored on CHO cells (human, UniProt Q498S8 31-155 (rat entry), GPI anchor).
T3 construct: also called FZD8 CRD; CHO-myc-FZDGPI; not shown: MYC tag and GPI anchor signal
T3 sequence: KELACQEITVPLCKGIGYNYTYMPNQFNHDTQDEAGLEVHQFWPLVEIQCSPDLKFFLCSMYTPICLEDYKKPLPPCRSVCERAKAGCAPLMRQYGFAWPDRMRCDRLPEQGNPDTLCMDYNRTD
Put plainly: flow cytometry, CHO-CRD cells.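 Also: flow cytometry of Fab binding to CHO cells overexpressing a Frizzled CRD, with binding defined as median fluorescence over twice that of CHO cells lacking any Frizzled CRD.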

Assay [4] addresses T4, FZD5 cysteine-rich domain (CRD), MYC-tagged and GPI-anchored on CHO cells (human, UniProt Q13467 29-156, GPI anchor).
T4 construct: also called FZD5 CRD; CHO-myc-FZDGPI; not shown: MYC tag and GPI anchor signal
T4 sequence: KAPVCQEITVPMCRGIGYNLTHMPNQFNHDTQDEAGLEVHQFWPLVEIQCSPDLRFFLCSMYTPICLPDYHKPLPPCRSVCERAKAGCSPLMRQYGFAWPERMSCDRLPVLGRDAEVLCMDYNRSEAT
Put plainly: flow cytometry, CHO-CRD cells.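 Also: flow cytometry of Fab binding to CHO cells overexpressing a Frizzled CRD, with binding defined as median fluorescence over twice that of CHO cells lacking any Frizzled CRD.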

Assay [5] has as its target T5, FZD6 cysteine-rich domain (CRD), MYC-tagged and GPI-anchored on CHO cells (human, UniProt O60353 20-146, GPI anchor).
T5 construct: also called FZD6 CRD; CHO-myc-FZDGPI; not shown: MYC tag and GPI anchor signal
T5 sequence: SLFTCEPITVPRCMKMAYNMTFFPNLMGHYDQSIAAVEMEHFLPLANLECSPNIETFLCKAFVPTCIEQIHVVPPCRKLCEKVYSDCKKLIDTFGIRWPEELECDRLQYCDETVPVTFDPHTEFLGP
Put plainly: flow cytometry, CHO-CRD cells.

The target of assay [6] is T6, FZD9 cysteine-rich domain (CRD), MYC-tagged and GPI-anchored on CHO cells (human, UniProt O00144 35-161, GPI anchor).
T6 construct: also called FZD9 CRD; CHO-myc-FZDGPI; not shown: MYC tag and GPI anchor signal
T6 sequence: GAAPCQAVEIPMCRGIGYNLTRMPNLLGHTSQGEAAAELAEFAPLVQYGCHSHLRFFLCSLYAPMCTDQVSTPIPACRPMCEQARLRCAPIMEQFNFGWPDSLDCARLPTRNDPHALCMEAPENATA
Put plainly: flow cytometry, CHO-CRD cells.

In assay [7] the target is T7, FZD10 cysteine-rich domain (CRD), MYC-tagged and GPI-anchored on CHO cells (human, UniProt Q9ULW2 30-156, GPI anchor).
T7 construct: also called FZD10 CRD; CHO-myc-FZDGPI; not shown: MYC tag and GPI anchor signal
T7 sequence: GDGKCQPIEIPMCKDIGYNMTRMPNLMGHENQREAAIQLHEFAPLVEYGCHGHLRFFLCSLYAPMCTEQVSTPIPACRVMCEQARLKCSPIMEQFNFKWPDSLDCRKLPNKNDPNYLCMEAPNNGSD
Put plainly: flow cytometry, CHO-CRD cells.

Assay [8] concerns the target T1, FZD4 cysteine-rich domain (CRD), …. Put plainly: immunofluorescence, CHO-CRD cells.
For assay [9], the target named is T2, FZD3 cysteine-rich domain (CRD), …. Put plainly: immunofluorescence, CHO-CRD cells.
Assay [10] deals with T3, FZD8 cysteine-rich domain (CRD), …. Put plainly: immunofluorescence, CHO-CRD cells.
In assay [11] the target is T5, FZD6 cysteine-rich domain (CRD), …. Put plainly: immunofluorescence, CHO-CRD cells.
Assay [12] deals with T6, FZD9 cysteine-rich domain (CRD), …. Put plainly: immunofluorescence, CHO-CRD cells.
Assay [13] has as its target T7, FZD10 cysteine-rich domain (CRD), …. Put plainly: immunofluorescence, CHO-CRD cells.
The target in assay [14] is T8, FZD2 cysteine-rich domain (CRD), MYC-tagged and GPI-anchored on CHO cells (human, UniProt Q14332 35-161). Put plainly: flow cytometry, CHO-CRD cells.
Experimental: (§1) Binding was measured via flow cytometry analysis of CHO cells overexpressing CRD of FZD1, FZD2, FZD3, FZD4, FZD5, FZD6, FZD7, FZD8, FZD9 or FZD10. Median fluorescence values are shown.
The target of assay [15] is T9, FZD1 cysteine-rich domain (CRD), MYC-tagged and GPI-anchored on CHO cells (human). Put plainly: flow cytometry, CHO-CRD cells.
Experimental: as §1
The target in assay [16] is T10, FZD7 cysteine-rich domain (CRD), MYC-tagged and GPI-anchored on CHO cells (human, UniProt O75084 45-169). Put plainly: flow cytometry, CHO-CRD cells.
Experimental: as §1
Assay [17] deals with T1, FZD4 cysteine-rich domain (CRD), …. Put plainly: flow cytometry on CHO-GPI cells over-expressing the Frizzled CRD.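 Also: binding of recombinant anti-Frizzled Fabs to the cells, read as fold mean fluorescence intensity above secondary-antibody-only background and normalized to control CHO-GPI cells.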
Text: (§2) Specificity profiling of the Frizzled profiler Fabs by flow cytometry in CHO-GPI cells over-expressing CRDs of FZD1, FZD2, FZD3, FZD4, FZD5, FZD6, FZD7, FZD8, FZD9 or FZD10. Numerical values indicate a fold-increase in mean fluorescence intensity of the reacting Fab over the background (secondary antibody alone) normalized to the control (C, CHO-GPI).
(§3) To characterize the binding specificity of these Fabs on cells, a panel of 10 CHO cell lines was generated, each expressing the CRD domain of a different myc-tagged Frizzled family member anchored at the plasma membrane through a GPI anchor (CHO-myc-FZDGPI).
The target of assay [18] is T2, FZD3 cysteine-rich domain (CRD), …. The description is as above.
Text: as §2, §3
Assay [19] has as its target T3, FZD8 cysteine-rich domain (CRD), …. The assay is described as above.
Text: as §2, §3
For assay [20], the target named is T4, FZD5 cysteine-rich domain (CRD), …. The assay is described as above.
Text: as §2, §3
Assay [21] addresses T5, FZD6 cysteine-rich domain (CRD), …. The description is as above.
Text: as §2, §3
For assay [22], the target named is T8, FZD2 cysteine-rich domain (CRD), …. The description is as above.
Text: as §2, §3
The target of assay [23] is T9, FZD1 cysteine-rich domain (CRD), …. Described as above.
Text: as §2, §3
Assay [24] addresses T6, FZD9 cysteine-rich domain (CRD), …. The assay is described as above.
Text: as §2, §3
Assay [25] has as its target T7, FZD10 cysteine-rich domain (CRD), …. The description is as above.
Text: as §2, §3
Assay [26] has as its target T10, FZD7 cysteine-rich domain (CRD), …. Described as above.
Text: as §2, §3

B1: Fab-2908 (Fab, V domains shown)
VH: EVQLVESGGGLVQPGGSLRLSCAASGFNFSSSSIHWVRQAPGKGLEWVAYIYPSYSYTYYADSVKGRFTISADTSKNTAYLQMNSLRAEDTAVYYCARAYYGHFHAMDYWGQGTLVTVSS
VL: DIQMTQSPSSLSASVGDRVTITCRASQSVSSAVAWYQQKPGKAPKLLIYSASSLYSGVPSRFSGSRSGTDFTLTISSLQPEDFATYYCQQSSYSLITFGQGTKVEIK
notes: Fab; also called Fv-2908
Take B1: the median fluorescence in [1] is 4.57; in assay [2], 3.22; in assay [3], 5.52; in assay [4], 25.5; in assay [5] it was 2.89; in assay [6] it was 3.13. For the same molecule, the median fluorescence in [7] amounted to 3.08. In addition, the binding result in assay [8], in assay [9], in assay [10], in assay [11], in assay [12] and in [13] was “no binding” throughout.

B2: Fab-2911 (Fab, V domains shown)
VH: EVQLVESGGGLVQPGGSLRLSCAASGFNIYYSSMHWVRQAPGKGLEWVAYIYPYSGYTSYADSVKGRFTISADTSKNTAYLQMNSLRAEDTAVYYCARYFWWYGFDYWGQGTLVTVSS
VL: B1 VL with S91G, S92P, Y93W, S94Y, L95P, I96F
notes: Fab; also called Fv-2911
As to B2, the median fluorescence in assay [1] worked out at 6.21; in [2], 4.96; in [3], 7.43; in assay [4], 20.5; in assay [5], 3.68; in assay [14], 22.7. The median fluorescence in assay [15] worked out at 38.2; in assay [6], 4.1; in [7], 3.96; in assay [16], 43.3. For the same molecule, the binding result in assay [8], in assay [9], in [10], in assay [11], in assay [12] and in assay [13] was “no binding” each time.

B3: Fab-2921 (Fab, V domains shown)
VH: EVQLVESGGGLVQPGGSLRLSCAASGFNISYYYIHWVRQAPGKGLEWVASIYPSSGSTSYADSVKGRFTISADTSKNTAYLQMNSLRAEDTAVYYCARGAMDYWGQGTLVTVSS
VL: DIQMTQSPSSLSASVGDRVTITCRASQSVSSAVAWYQQKPGKAPKLLIYSASSLYSGVPSRFSGSRSGTDFTLTISSLQPEDFATYYCQQWYAGSLITFGQGTKVEIK
notes: Fab
As to B3, the median fluorescence turned out to be 4.1 in assay [1]; 3.59 in assay [2]; 6.98 in assay [3]; 29.4 in assay [4]; 2.67 in [5]; 4.37 in [14]. Further, the median fluorescence in assay [15] stood at 4.53; in [6] it was 2.94; in assay [7], 2.48; in assay [16], 4.37. Further, the binding result in assay [17], in assay [18], in assay [21], in assay [22], in assay [23] and in [24] was “no binding (tested: 200 nM)” in each case. Moreover, the binding result in [25] and in assay [26] was “no binding (tested: 200 nM)” each time. The “fold-increase in mean fluorescence intensity over background (secondary antibody alone), normalized to control CHO-GPI” value in [19] was 6.8 fold; in [20], 14 fold.
